Laboratory results: PMC5068790

What was measured:
[1] = biological target: mouse Slo1 (BK channel α subunit) (mouse) (UniProt Q08460)
[2] = biological target: Drosophila Slo1 (BK channel α subunit) (Drosophila) (UniProt Q03720)
Sequence of UniProt Q03720 (Q03720 whole entry): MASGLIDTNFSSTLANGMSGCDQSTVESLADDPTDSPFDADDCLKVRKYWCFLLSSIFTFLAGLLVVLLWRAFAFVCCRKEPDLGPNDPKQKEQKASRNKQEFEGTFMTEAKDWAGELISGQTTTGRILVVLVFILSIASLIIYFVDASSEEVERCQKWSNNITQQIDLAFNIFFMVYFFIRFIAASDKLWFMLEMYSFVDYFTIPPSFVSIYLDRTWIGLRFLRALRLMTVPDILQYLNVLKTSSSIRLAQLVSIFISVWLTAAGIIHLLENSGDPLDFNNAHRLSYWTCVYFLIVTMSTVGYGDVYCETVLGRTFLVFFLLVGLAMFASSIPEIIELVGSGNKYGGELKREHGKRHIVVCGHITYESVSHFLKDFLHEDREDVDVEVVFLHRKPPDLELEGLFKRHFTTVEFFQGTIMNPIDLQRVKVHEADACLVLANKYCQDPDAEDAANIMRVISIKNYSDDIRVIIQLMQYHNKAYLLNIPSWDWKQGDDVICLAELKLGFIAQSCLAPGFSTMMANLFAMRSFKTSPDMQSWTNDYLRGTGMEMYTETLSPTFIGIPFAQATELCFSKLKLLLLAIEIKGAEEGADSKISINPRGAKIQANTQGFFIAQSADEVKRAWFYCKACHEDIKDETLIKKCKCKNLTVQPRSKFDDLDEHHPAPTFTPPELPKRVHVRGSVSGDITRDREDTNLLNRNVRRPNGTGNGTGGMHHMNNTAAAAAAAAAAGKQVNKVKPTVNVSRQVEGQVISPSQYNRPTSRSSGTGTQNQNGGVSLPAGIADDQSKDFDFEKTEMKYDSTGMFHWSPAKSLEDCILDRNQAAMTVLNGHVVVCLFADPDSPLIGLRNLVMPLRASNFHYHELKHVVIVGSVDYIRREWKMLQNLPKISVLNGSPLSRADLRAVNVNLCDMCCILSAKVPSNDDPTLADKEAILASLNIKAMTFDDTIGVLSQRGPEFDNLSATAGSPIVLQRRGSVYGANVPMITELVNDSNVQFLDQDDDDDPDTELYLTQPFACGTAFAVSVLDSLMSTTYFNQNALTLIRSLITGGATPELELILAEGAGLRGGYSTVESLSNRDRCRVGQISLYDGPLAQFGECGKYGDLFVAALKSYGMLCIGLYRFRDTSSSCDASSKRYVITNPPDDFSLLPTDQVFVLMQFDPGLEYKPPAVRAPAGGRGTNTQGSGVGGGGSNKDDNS

Sequence of UniProt Q08460 (Q08460 whole entry): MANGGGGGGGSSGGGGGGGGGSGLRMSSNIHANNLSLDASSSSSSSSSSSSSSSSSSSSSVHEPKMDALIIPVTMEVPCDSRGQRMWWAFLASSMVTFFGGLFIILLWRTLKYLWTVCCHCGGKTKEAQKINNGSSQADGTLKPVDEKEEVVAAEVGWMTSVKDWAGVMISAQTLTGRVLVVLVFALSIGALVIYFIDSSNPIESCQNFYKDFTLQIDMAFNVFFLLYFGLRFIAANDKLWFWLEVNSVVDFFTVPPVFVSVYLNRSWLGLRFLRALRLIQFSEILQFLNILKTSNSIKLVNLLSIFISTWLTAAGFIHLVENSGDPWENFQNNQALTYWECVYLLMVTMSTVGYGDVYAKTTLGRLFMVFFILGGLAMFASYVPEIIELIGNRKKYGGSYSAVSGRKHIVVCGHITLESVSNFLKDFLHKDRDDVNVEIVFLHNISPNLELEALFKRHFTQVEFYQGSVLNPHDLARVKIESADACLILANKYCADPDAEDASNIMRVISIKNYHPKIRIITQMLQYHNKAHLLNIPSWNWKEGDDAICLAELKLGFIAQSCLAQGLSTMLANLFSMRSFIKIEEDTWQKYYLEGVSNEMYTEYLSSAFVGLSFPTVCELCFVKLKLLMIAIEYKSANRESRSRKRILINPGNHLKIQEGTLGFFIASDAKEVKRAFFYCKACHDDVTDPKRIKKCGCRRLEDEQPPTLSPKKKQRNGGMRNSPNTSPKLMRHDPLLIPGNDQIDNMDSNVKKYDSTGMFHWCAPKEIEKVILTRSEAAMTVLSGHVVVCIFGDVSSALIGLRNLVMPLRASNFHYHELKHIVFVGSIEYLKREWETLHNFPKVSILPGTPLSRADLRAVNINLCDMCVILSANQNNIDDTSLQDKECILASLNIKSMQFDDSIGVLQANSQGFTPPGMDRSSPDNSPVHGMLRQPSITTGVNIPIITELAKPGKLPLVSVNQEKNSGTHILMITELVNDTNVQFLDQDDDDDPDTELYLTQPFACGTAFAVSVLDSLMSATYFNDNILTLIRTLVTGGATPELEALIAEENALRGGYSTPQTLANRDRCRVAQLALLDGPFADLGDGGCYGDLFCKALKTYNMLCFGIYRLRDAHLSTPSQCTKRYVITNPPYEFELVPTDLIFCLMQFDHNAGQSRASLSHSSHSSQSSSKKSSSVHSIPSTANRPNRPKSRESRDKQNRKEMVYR

patch clamp, inside-out patches of HEK293 cells, α:β2 transfection ratio 1:0.2: share of random tests whose currents showed rapid and complete inactivation (called binding rate) [1] [%] | patch clamp, inside-out patches of HEK293 cells: share of random tests with inactivation or brief openings (β2 binding ratio) at α:β2 transfection ratios 1:0.2 (about 7%), 1:1, 1:4 and 1:8 [2] [%] | patch clamp, inside-out patches of HEK293 cells, α:β2 transfection ratio 1:0.2, 10 μM Ca2+: share of random tests with a left shift of V50 to −30 mV from about +25 mV (called binding rate) [1] [%] | patch clamp, inside-out patches of HEK293 cells, transfection ratio 1:0.2: share of random tests with slow activation (called β2 binding rate) [2] [%] | Binder
100 | 85 |  |  | BK channel auxiliary β2 subunit (natural protein) MFIWTSGRTSSSYRHDEKRNIYQKIRDHDLLDKRKTVTALKAGEDRAILLGLAMMVCSIMMYFLLGITLLRSYMQSVWTEESQCTLLNASITETFNCSFSCGPDCWKLSQYPCLQVYVNLTSSGEKLLLYHTEETIKINQKCSYIPKCGKNFEESMSLVNVVMENFRKYQHFSCYSDPEGNQKSVILTKLYSSNVLFHSLFWPTCMMAGGVAIVAMVKLTQYLSLLCERIQRINR
 |  | 100 | 100 | Δ3-β2 (β2 subunit with the inactivation ball FIW deleted) (natural protein) MTSGRTSSSYRHDEKRNIYQKIRDHDLLDKRKTVTALKAGEDRAILLGLAMMVCSIMMYFLLGITLLRSYMQSVWTEESQCTLLNASITETFNCSFSCGPDCWKLSQYPCLQVYVNLTSSGEKLLLYHTEETIKINQKCSYIPKCGKNFEESMSLVNVVMENFRKYQHFSCYSDPEGNQKSVILTKLYSSNVLFHSLFWPTCMMAGGVAIVAMVKLTQYLSLLCERIQRINR
